Legend:
[1] = molecular target: RPA-wt (RPA70-RPA32-RPA14 heterotrimer) (Saccharomyces cerevisiae, UniProt P22336;P26754;P26755 1-621;1-273;1-122); experiment: FRET
scRad52 = scRad52 (Saccharomyces cerevisiae, UniProt P06778 1-471); experiment: FRET
Sequence of scRad52 (P06778 whole entry): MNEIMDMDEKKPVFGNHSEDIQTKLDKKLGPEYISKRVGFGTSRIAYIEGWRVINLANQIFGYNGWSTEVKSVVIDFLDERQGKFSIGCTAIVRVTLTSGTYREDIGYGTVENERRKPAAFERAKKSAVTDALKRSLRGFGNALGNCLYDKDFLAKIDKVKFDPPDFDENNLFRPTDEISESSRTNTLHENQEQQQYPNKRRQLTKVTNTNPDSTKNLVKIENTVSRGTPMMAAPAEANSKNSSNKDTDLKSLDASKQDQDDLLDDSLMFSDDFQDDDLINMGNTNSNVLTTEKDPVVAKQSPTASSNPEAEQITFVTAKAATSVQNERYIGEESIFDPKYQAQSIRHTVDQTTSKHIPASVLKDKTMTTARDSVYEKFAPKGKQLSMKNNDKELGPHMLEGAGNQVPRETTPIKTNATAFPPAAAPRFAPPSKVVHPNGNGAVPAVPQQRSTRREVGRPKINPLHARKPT

Sequence of RPA-wt (RPA70-RPA32-RPA14 heterotrimer) (P22336 whole entry, chain 1 of 3): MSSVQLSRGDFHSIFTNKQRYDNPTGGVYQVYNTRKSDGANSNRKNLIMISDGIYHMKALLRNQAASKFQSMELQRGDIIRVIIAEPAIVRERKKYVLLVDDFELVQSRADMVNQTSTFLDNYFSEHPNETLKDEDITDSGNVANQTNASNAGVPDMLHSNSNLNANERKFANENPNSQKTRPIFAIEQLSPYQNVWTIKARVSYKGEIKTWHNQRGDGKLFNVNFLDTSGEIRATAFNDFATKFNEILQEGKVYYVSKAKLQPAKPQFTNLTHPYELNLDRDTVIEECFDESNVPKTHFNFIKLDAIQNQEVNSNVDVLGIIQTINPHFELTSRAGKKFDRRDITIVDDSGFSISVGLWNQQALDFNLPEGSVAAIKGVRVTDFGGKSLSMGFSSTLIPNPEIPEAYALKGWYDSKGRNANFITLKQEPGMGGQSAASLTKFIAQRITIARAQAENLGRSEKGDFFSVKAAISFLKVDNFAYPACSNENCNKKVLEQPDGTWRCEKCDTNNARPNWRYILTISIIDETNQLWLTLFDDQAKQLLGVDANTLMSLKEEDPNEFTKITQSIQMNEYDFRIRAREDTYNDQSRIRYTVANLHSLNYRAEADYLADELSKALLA
Sequence of RPA-wt (RPA70-RPA32-RPA14 heterotrimer) (P26754 whole entry, chain 2 of 3): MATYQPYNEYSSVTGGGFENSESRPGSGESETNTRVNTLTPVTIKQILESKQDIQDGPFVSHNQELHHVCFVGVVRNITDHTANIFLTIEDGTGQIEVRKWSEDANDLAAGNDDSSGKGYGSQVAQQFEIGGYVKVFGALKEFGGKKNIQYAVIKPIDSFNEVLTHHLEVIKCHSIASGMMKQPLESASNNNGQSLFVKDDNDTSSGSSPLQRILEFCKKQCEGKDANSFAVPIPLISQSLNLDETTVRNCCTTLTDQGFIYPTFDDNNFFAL
Sequence of RPA-wt (RPA70-RPA32-RPA14 heterotrimer) (P26755 whole entry, chain 3 of 3): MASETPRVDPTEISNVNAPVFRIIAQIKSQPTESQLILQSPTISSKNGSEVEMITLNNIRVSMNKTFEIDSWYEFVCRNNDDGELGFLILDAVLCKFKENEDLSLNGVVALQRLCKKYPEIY

## TTTTTTTTTTTTTTTTTTTTTTTTTTTTTT (ssDNA) [Cy3-dT30-Cy5]
[1]
  binding result: binds
scRad52
  binding result: binds
